Experimental findings from the supplement of paper PMC7877785 are described below.

± gives the uncertainty stated by the source.

The series can be described thus: self-splicing fitness, log relative to wild type (ln ratio); higher = more splicing; Tetrahymena group I intron in knt gene, E. coli kanamycin selection, DiMSum; sequences stand for … in CUCUCU…GGAGGGAAAAGUUAUCAGGCAUGCACCUGGUAGCUAGUCUUUAAACCAAUAGAUUGCAUCGGUUUAAAAGGCAAGACCGUCAAAUUGCGGGAAAGGGGUCAACAGCCGUUCAGUACCAAGUCUCAGGGGAAACUUUGAGAUGGCCUUGCAAAGGGUAUGGUAAUAAGCUGACGGACAUGGUCCUAACCACGCAGCCAAGUCCUAAGUCAACAGAUCUUCUGUUGAUAUGGAUGCAGUUCACAGACUAAAUGUCGGUCGGGGAAGAUGUAUUCUUCUCAUAAGAUAUAGUCGGACCUCUCCUUAAUGGGAGCUAGCGGAUGAAGUGAUGCAACACUGGAGCCGCUGGGAACUAAUUUGUAUGCGAAAGUAUAUUGAUUAGUUUUGGAGUACUCGUGGUCG
The gist of the method:
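Colonies from six replicate transformations of E. coli BL21(DE3) were pooled and amplicon-sequenced on an Illumina HiSeq 2500. The library placed an intron with all eight P1ex-region nucleotides randomised inside the knt kanamycin-resistance gene on pET-22b(+), and cells grew overnight at 37°C or 30°C on LB agar with or without 25 μg/mL kanamycin (plus 100 μg/mL carbenicillin, 50 μM IPTG, 0.2% rhamnose). Fitness is the DiMSum error-weighted combination of wild-type-normalised replicate fold changes, kanamycin versus none.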

In the case of UGUCAGCAAUAUUACGCGAG, the “self-splicing fitness (ln)” value is, setting by setting: (30 °C) -1.31 ± 0.096; (37 °C) -0.991 ± 0.098. As to CCAUAGCAAUAUUACGCCGC, the “self-splicing fitness (ln)” value (30 °C) was -1.47 ± 0.21. Consider CGAAAGCAAUAUUACGACAA, for which the “self-splicing fitness (ln)” value reads like this: (30 °C) -1.13 ± 0.25; (37 °C) -1.63 ± 0.18. As to AGACAGCAAUAUUACGCUAU, the “self-splicing fitness (ln)” value by setting is: (30 °C) -3.31 ± 0.18; (37 °C) -0.948 ± 0.12. Regarding CGGCAGCAAUAUUACGGUAC, the “self-splicing fitness (ln)” value reads like this: (30 °C) -3.61 ± 0.49; (37 °C) -2.9 ± 0.23. For GACAAGCAAUAUUACGUAGA, in that order: -2.31 ± 0.092 and -0.707 ± 0.097. As for UAAGAGCAAUAUUACGUUAC, the “self-splicing fitness (ln)” value (37 °C) is -2.7 ± 0.34.

Turning to ACUAAGCAAUAUUACGGGUG, the “self-splicing fitness (ln)” value was -0.981 ± 0.06 (30 °C) and -0.673 ± 0.097 (37 °C). The matching figures for AGAAAGCAAUAUUACGUCUU: -1.77 ± 0.09 and -0.678 ± 0.088. UCGGAGCAAUAUUACGGUAG: the “self-splicing fitness (ln)” value runs as follows: (30 °C) -3.8 ± 0.35; (37 °C) -2.8 ± 0.28. The matching figures for GAUAAGCAAUAUUACGAAGG: -2.27 ± 0.15 and -1.86 ± 0.2. In the case of UGCCAGCAAUAUUACGGUUC, the “self-splicing fitness (ln)” value was -3.35 ± 0.2 (30 °C) and -1.81 ± 0.14 (37 °C). Take GCAAAGCAAUAUUACGACCU: the “self-splicing fitness (ln)” value is, setting by setting: (30 °C) -1.17 ± 0.13; (37 °C) 0.204 ± 0.16. Take CCACAGCAAUAUUACGUGAU: the “self-splicing fitness (ln)” value (30 °C) was -3.51 ± 0.18 and the “self-splicing fitness (ln)” value (37 °C) is -1.98 ± 0.12. For UAUAAGCAAUAUUACGGUGC, in that order: -2.46 ± 0.19 and -3.09 ± 0.3.

Take ACUCAGCAAUAUUACGAAUC: the “self-splicing fitness (ln)” value (37 °C) was -1.05 ± 0.32. For the sequence AUUAAGCAAUAUUACGACCA, the “self-splicing fitness (ln)” value is, setting by setting: (30 °C) -0.395 ± 0.2; (37 °C) -0.571 ± 0.25.

Regarding GCCCAGCAAUAUUACGGUAC, the “self-splicing fitness (ln)” value runs as follows: (30 °C) -1.27 ± 0.059; (37 °C) -0.241 ± 0.073. As for CAGCAGCAAUAUUACGCACG, the “self-splicing fitness (ln)” value was -0.667 ± 0.09 (30 °C) and -0.264 ± 0.1 (37 °C). As to UGGAAGCAAUAUUACGGGUG, the “self-splicing fitness (ln)” value is -1.07 ± 0.063 (30 °C) and -0.839 ± 0.083 (37 °C).

GUUAAGCAAUAUUACGGGUG: the “self-splicing fitness (ln)” value runs as follows: (30 °C) -3.29 ± 0.15; (37 °C) -2.39 ± 0.14. For CAGGAGCAAUAUUACGCCUU, the “self-splicing fitness (ln)” value is -1.86 ± 0.24 (30 °C) and -1.99 ± 0.33 (37 °C). UAGAAGCAAUAUUACGAUUG: the “self-splicing fitness (ln)” value is, setting by setting: (30 °C) -1.74 ± 0.07; (37 °C) -0.442 ± 0.083. For GACAAGCAAUAUUACGUUGC, the “self-splicing fitness (ln)” value is, setting by setting: (30 °C) -3.63 ± 0.14; (37 °C) -2.31 ± 0.16. In the case of UGCGAGCAAUAUUACGGGGG, the “self-splicing fitness (ln)” value reads like this: (30 °C) -3.34 ± 0.26; (37 °C) -2.36 ± 0.29. Turning to ACCGAGCAAUAUUACGUCUG, the “self-splicing fitness (ln)” value runs as follows: (30 °C) -2.37 ± 0.095; (37 °C) -2.28 ± 0.14. Regarding GCGAAGCAAUAUUACGUUGC, the “self-splicing fitness (ln)” value (37 °C) was -1.98 ± 0.2. For the sequence UCGUAGCAAUAUUACGCACG, the “self-splicing fitness (ln)” value (30 °C) is -1.8 ± 0.23 and the “self-splicing fitness (ln)” value (37 °C) is -0.584 ± 0.2.

Turning to UCCUAGCAAUAUUACGGUCG, the “self-splicing fitness (ln)” value (30 °C) is -1.69 ± 0.14 and the “self-splicing fitness (ln)” value (37 °C) is -1.59 ± 0.17.

On to AGGAAGCAAUAUUACGUAUC, for which the “self-splicing fitness (ln)” value by setting is: (30 °C) -3.45 ± 0.22; (37 °C) -2.88 ± 0.15. In the case of CCAAAGCAAUAUUACGCGUG, the “self-splicing fitness (ln)” value (30 °C) is -1.93 ± 0.067 and the “self-splicing fitness (ln)” value (37 °C) was -1.26 ± 0.066.

With GAGGAGCAAUAUUACGCUUG, the “self-splicing fitness (ln)” value was -1.28 ± 0.15 (30 °C) and -1.27 ± 0.2 (37 °C). In the case of GCAUAGCAAUAUUACGGACG, the “self-splicing fitness (ln)” value reads like this: (30 °C) -1.7 ± 0.088; (37 °C) -0.659 ± 0.12. Take UCCCAGCAAUAUUACGUCCA: the “self-splicing fitness (ln)” value (30 °C) is -1.51 ± 0.12 and the “self-splicing fitness (ln)” value (37 °C) was -0.587 ± 0.12. For the sequence CCAGAGCAAUAUUACGGAUA, the “self-splicing fitness (ln)” value is -3.52 ± 0.22 (30 °C) and -1.91 ± 0.16 (37 °C). Consider AAUGAGCAAUAUUACGCUUC, for which the “self-splicing fitness (ln)” value (37 °C) is -1.71 ± 0.23.

For UCCCAGCAAUAUUACGUGUC, the “self-splicing fitness (ln)” value reads like this: (30 °C) -2.9 ± 0.15; (37 °C) -2.44 ± 0.16.

Take AAUCAGCAAUAUUACGACGC: the “self-splicing fitness (ln)” value is -0.394 ± 0.098 (30 °C) and -0.936 ± 0.11 (37 °C). Take CAACAGCAAUAUUACGUCCU: the “self-splicing fitness (ln)” value is -2.08 ± 0.071 (30 °C) and -1.6 ± 0.094 (37 °C).
